Assay [1] concerns the target T1, CH505.TF mutant gp120 M8 (HIV-1).
T1 construct: domain: gp120
Briefly: direct-binding ELISA (OD450), panel 'CH505.TF gp120 M8'. (In general: An ELISA detects its analyte on a solid surface through an enzyme-linked reagent.)

For assay [2], the target named is T2, SSA.
T2 construct: also called SSA (Ro)
The assay can be described thus: AtheNA, Ab 25 ug/ml.
Text: (§1) AtheNA Multi-Lyte ANA Plus Test System is one such assay. This is luminex-based assay, which is also used to screen patient sera.

The target of assay [3] is T3, SSB (UniProt P05455 1-408).
T3 sequence: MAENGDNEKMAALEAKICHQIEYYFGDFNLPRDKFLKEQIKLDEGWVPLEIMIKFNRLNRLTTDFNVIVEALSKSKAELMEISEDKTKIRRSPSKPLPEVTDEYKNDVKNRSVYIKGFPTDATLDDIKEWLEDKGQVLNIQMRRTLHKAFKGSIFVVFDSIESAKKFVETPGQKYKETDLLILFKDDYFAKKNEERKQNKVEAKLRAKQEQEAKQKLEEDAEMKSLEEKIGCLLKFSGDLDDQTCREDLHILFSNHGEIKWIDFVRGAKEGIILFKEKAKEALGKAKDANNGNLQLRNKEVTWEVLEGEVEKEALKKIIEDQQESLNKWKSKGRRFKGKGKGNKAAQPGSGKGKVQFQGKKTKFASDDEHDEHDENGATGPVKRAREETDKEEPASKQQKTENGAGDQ
The assay can be described thus: AtheNA, Ab 25 ug/ml.
Text: as §1

In assay [4] the target is T4, RNP (ribonucleoprotein).
T4 construct: Protein-RNA complex
Briefly: AtheNA, Ab 25 ug/ml.
Text: as §1

In assay [5] the target is T5, Sm (Smith antigen).
T5 construct: Protein complex
The assay can be described thus: AtheNA, Ab 25 ug/ml.
Text: as §1

In assay [6] the target is T6, Histones.
T6 construct: Mixture of proteins
The assay can be described thus: AtheNA, Ab 25 ug/ml.
Text: as §1

The target in assay [7] is T7, Scl-70 (UniProt P11387 1-765).
T7 sequence: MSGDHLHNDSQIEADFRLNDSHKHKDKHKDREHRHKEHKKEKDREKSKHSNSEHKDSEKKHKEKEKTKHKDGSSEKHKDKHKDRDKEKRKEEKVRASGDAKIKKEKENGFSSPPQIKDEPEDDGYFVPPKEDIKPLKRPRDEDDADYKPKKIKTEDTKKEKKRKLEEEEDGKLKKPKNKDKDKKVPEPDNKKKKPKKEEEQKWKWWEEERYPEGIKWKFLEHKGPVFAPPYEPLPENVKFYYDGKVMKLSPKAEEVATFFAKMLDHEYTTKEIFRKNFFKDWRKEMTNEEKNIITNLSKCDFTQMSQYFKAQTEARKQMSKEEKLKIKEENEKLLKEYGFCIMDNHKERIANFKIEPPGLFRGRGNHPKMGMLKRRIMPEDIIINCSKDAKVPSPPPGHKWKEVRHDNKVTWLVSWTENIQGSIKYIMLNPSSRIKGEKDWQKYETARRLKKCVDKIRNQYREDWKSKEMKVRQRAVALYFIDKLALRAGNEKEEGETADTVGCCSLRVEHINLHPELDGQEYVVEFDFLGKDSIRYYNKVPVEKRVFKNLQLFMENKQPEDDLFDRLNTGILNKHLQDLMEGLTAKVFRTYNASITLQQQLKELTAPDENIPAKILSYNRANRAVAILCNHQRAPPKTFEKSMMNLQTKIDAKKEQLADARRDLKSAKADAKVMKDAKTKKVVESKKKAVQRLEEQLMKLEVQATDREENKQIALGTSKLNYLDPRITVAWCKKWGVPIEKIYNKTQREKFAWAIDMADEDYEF
The assay can be described thus: AtheNA, Ab 25 ug/ml.
Text: as §1

For assay [8], the target named is T8, HIV-1 CH505 transmitted/founder gp120 Env (HIV-1).
T8 construct: domain: gp120; also called CH505.TF gp120; CH505 TF gp120 Env
The assay can be described thus: direct-binding ELISA (OD450), panel 'CH505.TF gp120'.

Assay [9] concerns the target T9, STUB-1 (human, UniProt Q9UNE7 1-303).
T9 sequence: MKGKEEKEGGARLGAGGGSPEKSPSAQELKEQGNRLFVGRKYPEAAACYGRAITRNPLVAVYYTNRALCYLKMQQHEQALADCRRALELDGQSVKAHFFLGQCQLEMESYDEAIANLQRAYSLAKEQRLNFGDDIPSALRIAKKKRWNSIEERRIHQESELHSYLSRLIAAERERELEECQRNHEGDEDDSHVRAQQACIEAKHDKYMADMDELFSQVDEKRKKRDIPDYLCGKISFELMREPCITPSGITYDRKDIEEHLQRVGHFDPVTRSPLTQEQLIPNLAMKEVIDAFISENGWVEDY
The assay can be described thus: ProtoArray human protein microarray.

The target in assay [10] is T2, SSA. The assay can be described thus: AtheNA, Ab 12.5 ug/ml.
The target of assay [11] is T3, SSB. Briefly: AtheNA, Ab 12.5 ug/ml.
Assay [12] has as its target T5, Sm (Smith antigen). Briefly: AtheNA, Ab 12.5 ug/ml.
Assay [13] addresses T10, Jo-1 (UniProt P12081 1-509).
T10 sequence: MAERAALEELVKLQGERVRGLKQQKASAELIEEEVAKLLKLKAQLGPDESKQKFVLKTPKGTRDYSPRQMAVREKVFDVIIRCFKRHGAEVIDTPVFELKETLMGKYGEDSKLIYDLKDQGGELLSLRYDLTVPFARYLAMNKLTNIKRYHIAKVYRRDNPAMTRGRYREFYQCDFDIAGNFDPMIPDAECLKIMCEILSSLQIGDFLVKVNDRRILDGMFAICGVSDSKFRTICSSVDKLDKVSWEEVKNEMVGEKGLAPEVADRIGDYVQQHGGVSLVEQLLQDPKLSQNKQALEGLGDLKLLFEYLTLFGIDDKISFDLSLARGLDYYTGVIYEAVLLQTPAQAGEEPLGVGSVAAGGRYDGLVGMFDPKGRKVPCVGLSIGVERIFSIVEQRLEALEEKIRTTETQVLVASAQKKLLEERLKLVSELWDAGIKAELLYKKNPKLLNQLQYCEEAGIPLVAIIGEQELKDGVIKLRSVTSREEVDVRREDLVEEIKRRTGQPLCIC
The assay can be described thus: AtheNA, Ab 12.5 ug/ml.

The target of assay [14] is T6, Histones. Briefly: AtheNA, Ab 12.5 ug/ml.
Assay [15] has as its target T7, Scl-70. Briefly: AtheNA, Ab 12.5 ug/ml.
The target in assay [16] is T8, HIV-1 CH505 transmitted/founder gp120 …. The assay can be described thus: SPR, antibody captured on anti-human Ig Fc, gp120 injected.

The record followed here is patent US10450368 (DUKE UNIVERSITY, dated 2019).

Broadly, the EC50 (read off the curve) is the midpoint of the concentration-response curve. Low readings indicate greater potency, high ones weaker potency. One may read the Kd as the free concentration of one partner at which half of the binding sites on the other are occupied at equilibrium, for simple one-to-one binding. Usually koff stands for the first-order rate constant of dissociation.

B1: CH493 (antibody, V domains shown)
VH: QVRLLQYGGGVKRPGASMTISCVASGYNFNDYYIHWVRQAPGQGLELMGWIDPSGGRTDYAGAFGDRVSMYRDKSMNTLYMDLRSLRSGDTAMYYCVRNVGTAGSLLHYDHWGLGVMVTVSS
VL: EIVLTQSPATLSVSPGERVTLSCRASQSVRNNLAWYRQKRGQAPRLLIYGASTRATGIPARFSGSGSGTEFTLTISSMQSEDFAVYYCQQYNNWWTFGQGTKVEIK
notes: also called CH235.9; DH493
Regarding B1, the concentration giving a half-maximal response (EC50 (read off the curve)) is approximately 2 µg/mL in assay [1] and approximately 0.7 µg/mL in assay [8]. Further, the AtheNA signal in assay [2] came to 100; in [3], 38; in [4] it was 55; in assay [5], 53; in assay [6], 202; in assay [7] it was 34.

B2: CH557 (antibody, V domains shown)
VH: QVRLAQYGGGVKRLGATMTLSCVASGYTFNDYYIHWVRQAPGQGFELLGYIDPANGRPDYAGALRERLSFYRDKSMETLYMDLRSLRYDDTAMYYCVRNVGTAGSLLHYDHWGSGSPVIVSS
VL: EIVLTQSPATLSASPGERVTLTCRASRSVRNNVAWYQHKGGQSPRLLIYDASTRAAGVPARFSGSASGTEFTLAISNLESEDFTVYFCLQYNNWWTFGQGTRVDIK
notes: also called CH235.12; CH557_4A/293i
Take B2: in [9], the binding result was “no binding”. In addition, the AtheNA signal in assay [10] is 3 relative luminescence units; in assay [11] it was 9 relative luminescence units; in [12], 6 relative luminescence units; in assay [13] it was 5 relative luminescence units; in assay [14], 6 relative luminescence units; in [15], 3 relative luminescence units.

B3: CH241 (antibody, V domains shown)
VH: QVQLVQSGAAVKKPGASVRVSCKASGYTFTSSHIHWVRQAPGQGPEWMGMIDPSVGRPTTAGKFQGRVTMTRDRYTSTAYMDLSSLRSEDTAVYYCARSVETTGSLLYFDYWGQGTLITVSS
VL: EIVLTQSPATLSVSPGERATLSCRASQSVRSNIAWYQQKPGQAPRLLIHGASTRATGIPGRFSGSGSGPEFTLAISSVQSEDFAVYYCQQYNDWWTFGQGTKVEIK
In [16], B3 registered a dissociation constant (Kd) of 0.7 nM and a koff of 0.00033 s⁻¹.
